Assay results reported in patent US20110257102A1 (CASE WESTERN RESERVE UNIVERSITY, published 2011).
Several values for one entry are separate records, joined by “and”; a condition that tells them apart may be missing. Equal entries are not always repeated.

Assays:
[1] = molecular target: filamin A (FLNa) of human tumour cell lines (endogenous) (human) (UniProt P21333); test: cell-based or functional assay
[2] = molecular target: recombinant pro-PrP^23-253 (human, UniProt P04156 23-253); test: in vitro pull-down with mAb 8H4 and protein G beads, anti-GST immunoblot

In the case of KKRPK-PrP-GPI-PSS synthetic peptide, the inhibition of cellular motility of A7 cells (wound-healing assay) [1] is reported as 50% and 60%.

B1: GST-tagged FLNa domain 24 (other)
chain: PGPADASKVVAKGLGLSKAYVGQKSSFTVDCSKAGNNMLLVGVHGPRTPCEEILVKHVGSRLYSVSYLLKDKGEYTLVVKWGDEHIPGSPYRVVVP
notes: domain: domain 24
B1: no binding [2].

B2: GST-tagged FLNa domain 23 (other)
chain: GHGGDPGLVSAYGAGLEGGVTGNPAEFVVNTSNAGAGALSVTIDGPSKVKMDCQECPEGYRVTYTPMAPGSYLISIKYGGPYHIGGSPFKAKV
notes: domain: domain 23
B2: binds [2].

B3: GST-tagged FLNa domain 22 (other)
chain: SPSGDARRLTVSSLQESGLKVNQPASFAVSLNGAKGAIDAKVHSPSGALEECYVTEIDQDKYAVRFIPRENGVYLIDVKFNGTHIPGSPFKIRV
notes: domain: domain 22
B3: no binding [2].

B4: GST-tagged FLNa domain 21 (other)
chain: LGEGGAHKVRAGGPGLERAEAGVPAEFSIWTREAGAGGLAIAVEGPSKAEISFEDRKDGSCGVAYVVQEPGDYEVSVKFNEEHIPDSPFVVPV
notes: domain: domain 21
B4: binds [2].

B5: GST-tagged FLNa domain 17 (other)
chain: DYVNCGHVTAYGPGLTHGVVNKPATFTVNTKDAGEGGLSLAIEGPSKAEISCTDNQDGTCSVSYLPVLPGDYSILVKYNEQHVPGSPFTA
notes: domain: domain 17
B5: binds [2].

B6: GST-tagged FLNa domain 10 (other)
chain: VPCFDASKVKCSGPGLERATAGEVGQFQVDCSSAGSAELTIEICSEAGLPAEVYIQDHGDGTHTITYIPLCPGAYTVTIKYGGQPVPNFPSKLQV
notes: domain: domain 10
B6: binds [2].

B7: GST-tagged FLNa domain 19 (other)
chain: SEIGDASRVRVSGQGLHEGHTFEPAEFIIDTRDAGYGGLSLSIEGPSKVDINTEDLEDGTCRVTYCPTEPGNYIINIKFADQHVPGSPFS
notes: domain: domain 19
B7: no binding [2].

B8: GST-tagged FLNa domain 18 (other)
chain: RVTGDDSMRMSHLKVGSAADIPINISETDLSLLTATVVPPSGREEPCLLKRLRNGHVGISFVPKETGEHLVHVKKNGQHVASSPIPVVI
notes: domain: domain 18
B8: binds [2].

B9: GST-tagged FLNa domain 20 (other)
chain: VKVTGEGRVKESITRRRRAPSVANVGSHCDLSLKIPEISIQDMTAQVTSPSGKTHEAEIVEGENHTYCIRFVPAEMGTHTVSVKYKGQHVPGSPFQFTV
notes: domain: domain 20
B9: binds [2].

B10: GST-tagged FLNa domain 11 (other)
chain: EPAVDTSGVQCYGPGIEGQGVFREATTEFSVDARALTQTGGPHVKARVANPSGNLTETYVQDRGDGMYKVEYTPYEEGLHSVDVTYDGSPVPSSPFQVPV
notes: domain: domain 11
B10: no binding [2].
